Test results reported in patent US7118889 (US Dept. of Health and Human Services, dated 2006).

Legend:
[1] = target: Lck protein tyrosine kinase (transfected in 293T cells) (UniProt P06239 2-509, limits assumed); test: co-immunoprecipitation from transfected 293T cells
Protocol: Figure 4B: FIG. 4(B) is a representative immunoblot, showing association of LAT with signaling molecules in 293T cells. FLAG-tagged LAT was cotransfected with pCEFL/HA-Grb2, pSRα/Grap-myc, pcDNA3/HA-p85 and pcDNA3/PLC-γ1 in the absence or presence of ZAP-70 and Lck PTKs. Brij lysates of transfected 293T cells were immunoprecipitated with anti-FLAG, and association of LAT with tested proteins was determined by blotting with specific antibodies.
In this example, association of LAT with Grb2, Grap, PI3K and PLC-γ1 is shown in 293T cells. To investigate the association of LAT with critical signaling molecules, FLAG-tagged LAT in the pcDNA3 vector was cotransfected in 293T cells with plasmids expressing HA-tagged Grb2, Myc-tagged Grap, HA-tagged p85 subunit of PI3K or PLC-γ1, in the presence or absence of both ZAP-70 and Lck. LAT was immunoprecipitated with anti-FLAG antibody, and associated proteins were detected by blotting with specific antibodies. […] When LAT and the two PTKs were coexpressed with HA-tagged Grb2, both endogenous Grb2 and HA-Grb2 bound to phosphorylated LAT (HA-Grb2 migrates more slowly than endogenous Grb2 on SDS-PAGE). Myc-tagged Grap, the Grb2-like protein, when coexpressed with LAT in the presence of the two PTKs, also associated with phosphorylated LAT. […] HA-tagged p85 or PLC-γ1 also associated with phosphorylated LAT. […]

[2] = target: T1, p85 subunit of PI3K, endogenous, Jurkat T cells (human, UniProt P27986 2-724); test: anti-myc immunoprecipitation from C305-stimulated stable Jurkat transfectants, immunoblot
T1 construct: mature; also called p85 subunit of PI-3 kinase
Protocol: (§1) Exogenous LAT was immunoprecipitated with anti-myc antibody from cells either left unstimulated or stimulated with C305 (1:50). Samples were analyzed on SDS-PAGE and blotted with 4G10. The same membrane was also blotted with anti-PLC-γ1, anti-p85, anti-Grb2, anti-SOS, and anti-LAT after stripping.
(§2) Myc-tagged LAT was immunoprecipitated with anti-myc antibody from unstimulated or C305 stimulated transfectants. […] The myc-tagged LAT appears as a doublet as does endogenous LAT. […] In addition, mutations at Y171 and Y191 prevented the association of SLP-76, Vav and Cbl, but the 70 kDa tyrosine-phosphorylated protein remained associated with LAT. […] The association with SOS was also disrupted by the double Y to F mutations.

[3] = target: T2, Cbl, endogenous, Jurkat T cells (human, UniProt P22681 1-906, tyrosine phosphorylated in stimulated cells); test: as above
T2 construct: also called Cbl (120 kD); c-cbl
Protocol: as §1, §2

[4] = target: T3, Vav, endogenous, Jurkat T cells (human, UniProt P15498 1-845, tyrosine phosphorylated in stimulated cells); test: as above
T3 construct: also called Vav (100 kD)
T3 sequence (looked up): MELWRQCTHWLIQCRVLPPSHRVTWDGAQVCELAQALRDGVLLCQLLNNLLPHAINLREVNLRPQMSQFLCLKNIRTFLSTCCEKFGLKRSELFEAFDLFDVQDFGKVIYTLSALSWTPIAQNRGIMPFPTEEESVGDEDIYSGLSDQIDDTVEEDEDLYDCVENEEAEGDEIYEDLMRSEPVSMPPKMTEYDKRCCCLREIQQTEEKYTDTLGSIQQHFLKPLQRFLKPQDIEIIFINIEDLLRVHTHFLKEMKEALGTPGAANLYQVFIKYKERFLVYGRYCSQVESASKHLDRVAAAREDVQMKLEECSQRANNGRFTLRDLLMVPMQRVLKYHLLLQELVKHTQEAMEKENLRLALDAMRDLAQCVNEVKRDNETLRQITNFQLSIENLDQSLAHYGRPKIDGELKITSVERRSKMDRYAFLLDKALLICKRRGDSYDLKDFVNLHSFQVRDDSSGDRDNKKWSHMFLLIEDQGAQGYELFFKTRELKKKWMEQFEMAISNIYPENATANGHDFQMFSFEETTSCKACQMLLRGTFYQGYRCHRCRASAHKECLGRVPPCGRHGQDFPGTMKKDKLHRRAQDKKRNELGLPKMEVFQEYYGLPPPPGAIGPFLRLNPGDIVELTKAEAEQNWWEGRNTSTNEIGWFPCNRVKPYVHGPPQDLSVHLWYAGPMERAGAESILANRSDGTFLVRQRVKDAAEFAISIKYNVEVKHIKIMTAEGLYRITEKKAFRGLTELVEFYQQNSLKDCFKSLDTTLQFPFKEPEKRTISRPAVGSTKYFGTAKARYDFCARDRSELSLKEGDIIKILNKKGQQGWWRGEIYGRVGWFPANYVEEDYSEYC
Protocol: as §1, §2

[5] = target: T4, SLP-76, endogenous, Jurkat T cells (human, UniProt Q13094 1-533, tyrosine phosphorylated in stimulated cells); test: as above
T4 construct: mature; also called 76 kD protein; SH2-domain Leukocyte Protein
T4 sequence (looked up): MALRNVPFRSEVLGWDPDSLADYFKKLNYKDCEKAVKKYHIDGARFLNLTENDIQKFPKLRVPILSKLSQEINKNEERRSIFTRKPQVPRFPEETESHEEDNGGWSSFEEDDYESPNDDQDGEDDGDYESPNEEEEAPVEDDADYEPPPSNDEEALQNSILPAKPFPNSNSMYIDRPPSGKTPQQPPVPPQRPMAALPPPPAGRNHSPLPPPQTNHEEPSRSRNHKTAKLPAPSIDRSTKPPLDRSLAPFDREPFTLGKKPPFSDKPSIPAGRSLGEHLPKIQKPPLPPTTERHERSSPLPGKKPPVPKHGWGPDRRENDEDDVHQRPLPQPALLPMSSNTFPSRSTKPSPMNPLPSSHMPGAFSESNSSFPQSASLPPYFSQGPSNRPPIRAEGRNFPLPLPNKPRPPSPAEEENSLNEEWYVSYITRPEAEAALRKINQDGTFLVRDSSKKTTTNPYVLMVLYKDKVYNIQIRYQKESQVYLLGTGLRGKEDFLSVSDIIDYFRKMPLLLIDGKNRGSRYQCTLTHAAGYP
Protocol: as §1, §2

[6] = target: T5, Grb2, endogenous (293T cells and Jurkat T cells) (human, UniProt P62993 1-217); test: as above
T5 construct: Endogenous protein of human cell lines; also called endogenous Grb2; Grb2 linker protein
Protocol: as §1, §2

Measured: binding result

T5 sequence (P62993 whole entry): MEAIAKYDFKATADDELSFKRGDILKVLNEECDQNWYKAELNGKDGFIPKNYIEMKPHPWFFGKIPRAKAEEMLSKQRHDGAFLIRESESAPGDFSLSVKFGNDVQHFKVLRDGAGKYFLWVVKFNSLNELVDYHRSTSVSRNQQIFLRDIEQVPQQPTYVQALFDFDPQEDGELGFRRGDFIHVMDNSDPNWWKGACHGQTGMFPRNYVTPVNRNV
T1 sequence (P27986 2-724): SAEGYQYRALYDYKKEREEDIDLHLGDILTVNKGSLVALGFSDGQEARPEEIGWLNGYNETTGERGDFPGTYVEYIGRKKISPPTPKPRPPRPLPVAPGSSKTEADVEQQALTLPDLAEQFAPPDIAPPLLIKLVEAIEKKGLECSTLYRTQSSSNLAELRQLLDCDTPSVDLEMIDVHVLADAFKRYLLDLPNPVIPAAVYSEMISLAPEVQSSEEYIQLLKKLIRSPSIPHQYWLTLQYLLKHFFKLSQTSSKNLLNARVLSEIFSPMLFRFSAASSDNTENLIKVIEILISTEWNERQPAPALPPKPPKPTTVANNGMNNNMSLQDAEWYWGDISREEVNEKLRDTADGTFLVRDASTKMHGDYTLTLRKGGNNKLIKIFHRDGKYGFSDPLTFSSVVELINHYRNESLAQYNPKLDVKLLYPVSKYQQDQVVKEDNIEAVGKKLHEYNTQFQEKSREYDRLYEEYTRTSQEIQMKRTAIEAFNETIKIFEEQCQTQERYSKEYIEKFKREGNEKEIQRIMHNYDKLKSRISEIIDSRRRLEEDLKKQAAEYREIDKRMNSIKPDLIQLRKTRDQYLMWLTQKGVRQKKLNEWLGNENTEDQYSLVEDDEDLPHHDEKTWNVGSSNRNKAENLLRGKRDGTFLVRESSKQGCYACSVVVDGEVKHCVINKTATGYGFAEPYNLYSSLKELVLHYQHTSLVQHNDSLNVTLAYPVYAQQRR
Chain of Lck protein tyrosine kinase (transfected in 293T cells) (P06239 2-509 limits assumed): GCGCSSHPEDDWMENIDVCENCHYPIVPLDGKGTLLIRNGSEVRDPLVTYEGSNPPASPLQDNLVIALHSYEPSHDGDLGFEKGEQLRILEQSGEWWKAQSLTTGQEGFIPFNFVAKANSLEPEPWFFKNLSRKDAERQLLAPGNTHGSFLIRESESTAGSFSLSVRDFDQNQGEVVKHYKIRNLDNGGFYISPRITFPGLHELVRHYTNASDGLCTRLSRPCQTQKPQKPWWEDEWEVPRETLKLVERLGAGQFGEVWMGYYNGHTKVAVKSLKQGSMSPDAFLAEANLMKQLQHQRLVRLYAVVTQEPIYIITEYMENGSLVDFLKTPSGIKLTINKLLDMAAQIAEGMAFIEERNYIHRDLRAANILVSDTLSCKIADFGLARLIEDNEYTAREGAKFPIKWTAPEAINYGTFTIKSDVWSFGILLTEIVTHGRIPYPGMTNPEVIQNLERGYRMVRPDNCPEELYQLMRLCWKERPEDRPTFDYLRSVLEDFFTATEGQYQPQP

B1: FLAG-tagged LAT, tyrosine phosphorylated (co-expressed in 293T cells with Syk, or with ZAP-70 and Lck or Fyn) (other)
chain: MEEAILVPCVLGLLLLPILAMLMALCVHCHRLPGSYDSTSSDSLYPRGIQFKRPHTVAPWPPAYPPVTSYPPLSQPDLLPIPRSPQPLGGSHRTPSSRRDSDGANSVASYENEEPACEDADEDEDDYHNPGYLVVLPDSTPATSTAAPSAPALSTPGIRDSAFSMESIDDYVNVPESGESAEASLDGSREYVNVSQELHPGAAKTEPAALSSQEAEEVEEEGAPDYENLQELNDYKDDDDK
modifications: tyrosine phosphorylated by co-expressed PTKs; sites not mapped
notes: Made by replacing the Pst I/Cla I fragment of LAT with an oligonucleotide encoding FLAG; also called phosphorylated LAT
no binding: [1]

B2: myc-tagged mutant LAT (Y171/191F), stably expressed in Jurkat cells, C305 stimulated (other)
chain: MEEAILVPCVLGLLLLPILAMLMALCVHCHRLPGSYDSTSSDSLYPRGIQFKRPHTVAPWPPAYPPVTSYPPLSQPDLLPIPRSPQPLGGSHRTPSSRRDSDGANSVASYENEEPACEDADEDEDDYHNPGYLVVLPDSTPATSTAAPSAPALSTPGIRDSAFSMESIDDFVNVPESGESAEASLDGSREFVNVSQELHPGAAKTEPAALSSQEAEEVEEEGAPDYENLQELNSMEQKLISEEDLN
modifications: tyrosine phosphorylated upon stimulation at residues other than Y171 and Y191, less than WT
notes: also called mLAT
not listed: [1]
no binding: all other assays above
